In this experiment the target is T1, complement factor H (human, UniProt P08603 19-1231, 125I-labelled (Iodobeads) in the blot and bacterial binding assays).
T1 construct: also called fH; FH
Nature of the experiment: SPR (Biacore), GST:Hic39-261 captured on anti-GST antibody chip, fH as analyte, Langmuir 1:1 model, mean ± SD of three experiments. For orientation: SPR reads the build-up and loss of mass on a sensor chip optically.

T1 sequence (P08603 19-1231 limits assumed): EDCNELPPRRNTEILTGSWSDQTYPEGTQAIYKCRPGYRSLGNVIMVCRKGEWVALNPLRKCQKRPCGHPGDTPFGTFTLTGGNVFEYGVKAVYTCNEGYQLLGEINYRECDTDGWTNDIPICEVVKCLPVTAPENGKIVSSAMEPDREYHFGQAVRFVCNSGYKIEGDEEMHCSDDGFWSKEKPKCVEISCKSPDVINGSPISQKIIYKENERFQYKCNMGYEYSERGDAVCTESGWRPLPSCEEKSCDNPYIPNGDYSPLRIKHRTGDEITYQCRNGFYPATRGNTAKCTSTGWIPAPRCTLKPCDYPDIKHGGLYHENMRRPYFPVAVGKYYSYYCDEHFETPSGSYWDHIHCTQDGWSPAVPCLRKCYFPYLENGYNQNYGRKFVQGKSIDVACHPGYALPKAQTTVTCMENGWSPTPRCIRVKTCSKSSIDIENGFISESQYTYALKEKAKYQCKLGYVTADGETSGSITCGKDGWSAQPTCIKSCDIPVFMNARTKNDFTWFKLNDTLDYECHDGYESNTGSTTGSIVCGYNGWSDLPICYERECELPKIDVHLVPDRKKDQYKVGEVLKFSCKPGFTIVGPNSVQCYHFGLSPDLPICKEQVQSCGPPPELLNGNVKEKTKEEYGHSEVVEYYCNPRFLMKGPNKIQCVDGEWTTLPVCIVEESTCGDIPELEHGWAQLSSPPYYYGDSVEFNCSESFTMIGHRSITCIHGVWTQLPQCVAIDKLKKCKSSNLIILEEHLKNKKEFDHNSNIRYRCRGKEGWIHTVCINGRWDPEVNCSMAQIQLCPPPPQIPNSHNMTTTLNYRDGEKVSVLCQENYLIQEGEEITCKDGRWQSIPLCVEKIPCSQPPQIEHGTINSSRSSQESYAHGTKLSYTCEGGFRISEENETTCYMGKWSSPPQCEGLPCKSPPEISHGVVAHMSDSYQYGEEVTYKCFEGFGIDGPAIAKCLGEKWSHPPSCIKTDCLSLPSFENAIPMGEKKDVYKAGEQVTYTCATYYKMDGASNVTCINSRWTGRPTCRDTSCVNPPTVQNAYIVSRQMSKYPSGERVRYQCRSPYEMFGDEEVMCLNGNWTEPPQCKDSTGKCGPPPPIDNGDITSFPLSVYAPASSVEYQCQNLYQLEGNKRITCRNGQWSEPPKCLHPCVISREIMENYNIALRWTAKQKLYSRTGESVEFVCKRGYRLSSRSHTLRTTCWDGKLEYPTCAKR

B1: GST:Hic^39-261 fusion protein (other)
chain: EKEVTTQVATSSNKANKSQTEHMKAAKQVDEYIEKMLSEIQLDRRKHTQNVGLLTKLGAIKTEYLRGLSVSKEKSTAELPSEIKEKLTAAFEQFKKDTLKSGKKVAEAQKKAKDQKEAKQEIEALIVKHKGREIDLDRKKAKAAVTEHLKKLLNDIEKNLKKEQHTHTVELIKNLKDIEKTYLHKLDESTQKAQLQKLIAESQSKLDEAFSKFKNGLSSSSNS
notes: main band 54 kDa, partly degraded; Vector-derived residues after the EcoRI site, if any, are not described; also called fusion between GST and the NH2-terminal Hic region; not shown: glutathione S-transferase (GST) encoded by vector pGEX-5X-3 (Pharmacia Biotech); vector-encoded residues between GST and the BamHI cloning site of pGEX-5X-3
In turn, B1 came in with a Ka of 5e+07 M⁻¹, a Kd of 0.023 µM, a koff of 0.00061 s⁻¹ and a kon of 28000 M⁻¹ s⁻¹.

A word on the Kd: it is the concentration at which binding is half-saturated. Higher therefore signals lower affinity. As usually defined, the koff is the rate constant with which the complex falls apart. Low values mean a long-lived complex, high ones a short-lived complex. By kon is commonly meant a measure of how fast the partners come together.

For the origin of these results see patent publication US20040091495A1 (published 2004).
